{"source": "paper PMC11876735", "about": "(Journal of Nuclear Medicine, 2025)", "conditions_in_all_cases": "in vivo", "key": {"[1]": {"test_system": "midgut neuroendocrine tumors", "parameters": "species or system patients", "method": "The best tumor size change from baseline was assessed in individual lesions with dosimetric estimations. Tumor size was assessed by CT using 2 dimensions (longest [L] and perpendicular [W]) for each tumor per time point. Size change was based on the ratio of tumor area (L × W) at measured times (Tt) to tumor area at baseline (Tbl) and presented as a percentage where percentage tumor size change was ((Tt/Tbl) − 1) × 100%. Positive values indicate size growth, and negative values represent size reduction. Analyses were repeated using 1 dimension (short axis for lymph node lesions and long axis for other lesions). Tumor measurements were performed at 2–7 time points at 12-wk intervals until 72 wk after the first administration. […] However, the timings of dosimetry assessments were not the same for all lesions. Lesion uptake was assumed to be proportional to mass, resulting in a constant absorbed dose at all cycles for an equivalent injected activity. The cumulative absorbed dose was calculated for each target lesion. The correlation between tumor absorbed dose and effect was assessed by plotting the best percentage tumor size change from baseline versus the tumor cumulative absorbed dose."}, "[2]": {"test_system": "midgut neuroendocrine tumors", "parameters": "species or system patients", "excerpt": "For tumor dosimetry, baseline scintigraphy was used to select tumors that were easily delineated on imaging. Tumor doses were derived using the sphere model of OLINDA/EXM version 1.0 ([14]). The ^177Lu dose factor values were interpolated for each lesion on the basis of its mass.", "remark": "listed apart in the source"}, "[3]": {"parameters": "species or system patients", "excerpt": "Safety data were collected as previously described ([5])."}, "[4]": {"parameters": "species or system patients", "method": "Dosimetry assessments were performed using planar scintigraphy methodology routinely used at the time the study was conducted ([9],[10]). […] The geometric mean between the anterior and posterior images at each time point was calculated ([11]). Source organ radioactivity was determined at each time point, and cumulative activities were calculated ([12]). Absorbed dose values in target organs were calculated using time-integrated activity coefficients ([13]) of source organs using OLINDA/EXM version 1.0 (Hermes Medical Solutions) ([14]). A blood-based model was used to derive the cumulative activity in the red marrow and the corresponding absorbed dose ([15],[16]).", "remark": "listed apart in the source"}}, "data": [{"smiles": "C[C@@H](O)[C@H](NC(=O)[C@@H]1CSSC[C@H](NC(=O)[C@@H](Cc2ccccc2)NC(=O)CN2CCN(CC(=O)O)CCN(CC(=O)O)CCN(CC(=O)O)CC2)C(=O)N[C@@H](Cc2ccc(O)cc2)C(=O)N[C@H](Cc2c[nH]c3ccccc23)C(=O)N[C@@H](CCCCN)C(=O)N[C@@H]([C@@H](C)O)C(=O)N1)C(=O)O", "note": "[^177Lu-DOTATATE, [^177Lu]Lu-DOTATATE, metal not drawn]", "values": [{"measurement": "Cumulative absorbed dose range of lesions with approximately 50 Gy or greater", "setting": "[1]", "result": "50–789 Gy"}, {"measurement": "Lesions that received a cumulative absorbed dose of approximately 50 Gy or greater", "setting": "[1]", "result": 73, "unit": "%"}, {"measurement": "Absorbed dose for four 7.4 GBq (29.6 GBq in total), Median (range)", "setting": "[2]", "result": "134 (7–2,218) Gy"}, {"measurement": "Absorbed dose per unit activity, Median (range)", "setting": "[2]", "result": "4.5 (0.2–74.9) Gy/GBq"}, {"measurement": "Lesion activity at 160 h", "setting": "[2]", "result": "less than 0.01 % of injected activity"}, {"measurement": "Target lesions with cumulative absorbed dose of at least 50 Gy", "setting": "[2]", "result": 73.8, "unit": "%"}, {"measurement": "Target lesions with cumulative absorbed dose of at least 100 Gy", "setting": "[2]", "result": 52.3, "unit": "%"}, {"measurement": "Absorbed dose for four 7.4 GBq (29.6 GBq in total), Mean (SD)", "setting": "[2]; SD", "result": "224 (313) Gy"}, {"measurement": "Absorbed dose per unit activity, Mean (SD)", "setting": "[2]; SD", "result": "7.6 (10.6) Gy/GBq"}, {"measurement": "Acute hematologic toxicity grade", "setting": "[3]", "result": "mild or moderate (grade 1 or 2)"}, {"measurement": "Patients with grade 4 lymphopenia during treatment (acute toxicity)", "setting": "[3]", "result": 20, "unit": "%"}, {"measurement": "Patients with transient grade 3 leukopenia during treatment", "setting": "[3]", "result": 10, "unit": "%"}, {"measurement": "Severe renal toxicity", "setting": "[3]", "result": "no severe renal toxicity was observed"}, {"measurement": "Overall effective half-life of the elimination phase", "setting": "[4]; human", "result": "21 to 161", "unit": "h"}, {"measurement": "Cumulative red marrow dose", "setting": "[4]", "result": 3.2, "unit": "Gy"}, {"measurement": "Kidney doses in three substudy patients", "setting": "[4]", "result": "28-33 Gy"}, {"measurement": "Kidney injected activity profile, peak", "setting": "[4]", "result": "around 8%"}]}]}
